Test system: recombinant human cathelin-like protein (cathelin-like domain of hCAP18, residues 31-131), after removal of the N-terminal tag with enterokinase
Sequence (chain, as listed by the source): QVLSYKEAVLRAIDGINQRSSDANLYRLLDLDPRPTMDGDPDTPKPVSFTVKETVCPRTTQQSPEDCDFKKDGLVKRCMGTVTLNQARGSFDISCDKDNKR

human liver cathepsin L (Calbiochem), sequence (chain, as listed by the source): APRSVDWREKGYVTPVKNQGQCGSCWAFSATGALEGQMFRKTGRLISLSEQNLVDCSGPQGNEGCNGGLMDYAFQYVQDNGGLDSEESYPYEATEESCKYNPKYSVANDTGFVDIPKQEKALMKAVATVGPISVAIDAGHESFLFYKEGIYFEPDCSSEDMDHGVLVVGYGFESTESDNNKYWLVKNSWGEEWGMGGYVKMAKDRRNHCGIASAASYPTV

## human liver cathepsin L (Calbiochem)
  hydrolysis of Z-Phe-Arg-AMC by cathepsin L alone and with cathelin-like protein: Data demonstrate inhibition of cathepsin L by the addition of cathelin-like recombinant protein
  slope of fluorescence generation (Z-Phe-Arg-AMC hydrolysis) with cathelin-like protein; cathepsin L alone gave 1.31: slope=1.31 vs 0.71, respectively

— patent publication US7173007
